The results in this text go back to patent publication EP4775675A1 (Shanghai Hongcheng Biopharmaceutical Co., Ltd., dated 2026).

For assay [1], the target named is T1, human BDCA-2 on cells (Jurkat-hBDCA-2 cells; human pDCs; human PBMCs) (human, UniProt Q8WTT0 1-213).
T1 sequence (looked up): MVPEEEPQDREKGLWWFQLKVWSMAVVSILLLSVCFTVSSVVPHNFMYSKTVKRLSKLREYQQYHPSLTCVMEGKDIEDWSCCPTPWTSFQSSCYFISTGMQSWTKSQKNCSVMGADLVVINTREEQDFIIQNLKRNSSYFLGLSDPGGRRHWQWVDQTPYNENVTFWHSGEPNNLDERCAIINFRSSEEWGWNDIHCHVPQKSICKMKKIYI
The assay can be described thus: cell-based or functional assay.

Assay [2] deals with T2, cynomolgus monkey BDCA-2 on cells (Jurkat-cynoBDCA-2 cells; cynomolgus monkey pDCs) (cynomolgus monkey, UniProt A0A2K5UWP4 1-212).
T2 construct: whole, on cells
T2 sequence: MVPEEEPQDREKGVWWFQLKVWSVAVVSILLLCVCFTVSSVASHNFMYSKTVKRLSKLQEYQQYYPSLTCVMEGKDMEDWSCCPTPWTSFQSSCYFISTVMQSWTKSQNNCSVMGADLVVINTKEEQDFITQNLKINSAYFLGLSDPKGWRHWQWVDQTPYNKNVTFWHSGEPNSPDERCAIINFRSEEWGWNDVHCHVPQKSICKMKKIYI
Nature of the assay: flow cytometry on Jurkat-cynoBDCA-2 cells. On the technique in general: Flow cytometry measures light scatter and fluorescence of single cells or particles in a stream.

Assay [3] addresses T1, human BDCA-2 on cells (Jurkat-hBDCA-2 …). Nature of the assay: flow cytometry on Jurkat-hBDCA-2 cells.
In assay [4] the target is T2, cynomolgus monkey BDCA-2 on cells …. Nature of the assay: flow cytometry on Jurkat-cynoBDCA-2 cells. The source holds these as a separate data set.
Assay [5] has as its target human FcγRIIIa (158V) on Jurkat-human FcγRIIIa (158V)-NFAT cells (human, UniProt P08637 17-254). The assay can be described thus: cell-based or functional assay.
The target of assay [6] is T3, Human BDCA-2 protein (soluble, Octet analyte) (human, UniProt Q8WTT0 45-213, limits assumed).
T3 construct: Soluble protein used as analyte in BLI
T3 sequence (looked up): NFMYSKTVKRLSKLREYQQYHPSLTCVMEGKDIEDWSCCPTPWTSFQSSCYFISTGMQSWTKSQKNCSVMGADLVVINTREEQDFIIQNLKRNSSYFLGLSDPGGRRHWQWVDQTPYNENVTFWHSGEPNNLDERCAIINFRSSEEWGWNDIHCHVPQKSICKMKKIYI
Nature of the assay: BLI (Octet Red96e), antibody on anti-human IgG sensor, human BDCA-2 protein in solution.

In assay [7] the target is T1, human BDCA-2 on cells (Jurkat-hBDCA-2 …). The assay can be described thus: cell-based or functional assay. This is another data set of the same source.
For assay [8] the target is unchanged. The assay can be described thus: flow cytometry on Jurkat-hBDCA-2 cells. The source holds these as a separate data set.
For assay [9], the target named is T4, cynomolgus monkey BDCA-2 protein (acro, CLC-C52H4) (cynomolgus monkey, UniProt A0A2K5UWP4 45-212).
T4 construct: Bought soluble protein; also called cyno BDCA-2
T4 sequence: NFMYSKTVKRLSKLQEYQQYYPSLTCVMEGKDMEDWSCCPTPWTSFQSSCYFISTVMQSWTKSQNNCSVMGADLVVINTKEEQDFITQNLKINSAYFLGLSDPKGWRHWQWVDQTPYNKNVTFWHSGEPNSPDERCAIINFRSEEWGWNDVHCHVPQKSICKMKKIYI
The assay can be described thus: BLI (Octet Red96e), antibody on anti-human IgG sensor, cynomolgus monkey BDCA-2 protein in solution. (BLI is a label-free optical method that tracks binding on a fibre tip over time.)

The target in assay [10] is T1, human BDCA-2 on cells (Jurkat-hBDCA-2 …). Nature of the assay: cell-based or functional assay. This is another data set of the same source.
The target of the next assay is T5, human CLEC4A (human, UniProt Q9UMR7 70-237, limits assumed).
T5 sequence (looked up): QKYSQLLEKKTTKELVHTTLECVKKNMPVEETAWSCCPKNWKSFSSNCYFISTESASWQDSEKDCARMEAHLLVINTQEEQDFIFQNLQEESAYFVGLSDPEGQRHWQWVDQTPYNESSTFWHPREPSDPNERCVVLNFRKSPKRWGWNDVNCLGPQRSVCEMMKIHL
The assay can be described thus: ELISA, coated protein 1 µg/ml. (In general: In an ELISA, binding on a coated surface is turned into a signal by an enzyme label.)

A further assay has as its target T6, human CLEC6A (human, UniProt Q6EIG7 42-209, limits assumed).
T6 sequence (looked up): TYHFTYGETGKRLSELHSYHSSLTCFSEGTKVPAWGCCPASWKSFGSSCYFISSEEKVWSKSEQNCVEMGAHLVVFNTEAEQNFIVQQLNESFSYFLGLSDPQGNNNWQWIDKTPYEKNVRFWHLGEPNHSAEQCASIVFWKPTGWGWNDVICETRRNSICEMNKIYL
Nature of the assay: ELISA, coated protein 1 µg/ml.

The target of another assay is T7, human CLEC4D (human, UniProt Q8WXI8 39-215, limits assumed).
T7 sequence (looked up): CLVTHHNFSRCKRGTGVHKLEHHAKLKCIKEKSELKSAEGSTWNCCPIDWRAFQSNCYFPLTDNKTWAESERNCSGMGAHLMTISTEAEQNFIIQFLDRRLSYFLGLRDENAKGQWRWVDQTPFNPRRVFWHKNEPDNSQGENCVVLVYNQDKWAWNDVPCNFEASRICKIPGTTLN
The assay can be described thus: ELISA, coated protein 1 µg/ml.

For a further assay, the target named is T8, human CLEC4E (human, UniProt Q9ULY5 41-219, limits assumed).
T8 sequence (looked up): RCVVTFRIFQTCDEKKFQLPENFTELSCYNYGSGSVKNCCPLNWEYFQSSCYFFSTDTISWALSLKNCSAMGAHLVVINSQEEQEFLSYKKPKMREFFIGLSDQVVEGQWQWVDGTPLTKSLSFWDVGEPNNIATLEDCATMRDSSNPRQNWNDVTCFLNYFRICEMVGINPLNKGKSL
Nature of the assay: ELISA, coated protein 1 µg/ml.

Assay [11] addresses T1, human BDCA-2 on cells (Jurkat-hBDCA-2 …). The assay can be described thus: cell-based or functional assay. The source holds these as a separate data set.

Residue numbers refer to the chain shown, from its start. Like-named read-outs stand apart in the source and are kept apart here.

Sequence of human FcγRIIIa (158V) on Jurkat-human FcγRIIIa (158V)-NFAT cells (P08637 17-254 F176V): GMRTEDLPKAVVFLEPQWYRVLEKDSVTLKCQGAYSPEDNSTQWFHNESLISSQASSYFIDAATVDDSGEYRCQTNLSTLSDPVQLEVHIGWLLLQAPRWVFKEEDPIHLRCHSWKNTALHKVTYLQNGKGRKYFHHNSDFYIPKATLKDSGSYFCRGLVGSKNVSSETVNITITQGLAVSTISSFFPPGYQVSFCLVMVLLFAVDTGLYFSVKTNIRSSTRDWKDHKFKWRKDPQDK

B1: 17G6A2 (murine hybridoma monoclonal antibody) (antibody, V domains shown)
VH: EVQLVESGGDLVKPGGSLKLSCAASGFTFSSYGMSWVRQTPDKRLEWVATISSGDSYTYYPDSVKGRFTISRDNAKNTLYLQMSSLKSEDTAMYYCARQLYYSYGYYFDYWGQGTTLTVSS
VL: DIVLTQSPASLAVSLGQRATISCRASESVSFHGTHLMHWYQQKPGQPPKLLIYAASNLESGVPARFSGSGSETDFTLNIHPVEEEDAATYFCQQSIEDPPTFGGGTKLEIK
notes: also called hybridoma 17G6A2; hybridoma antibody 17G6A2
Regarding B1, in [1], the “EC50, inhibition of CpGA-induced type I interferon (IFNα) production in human PBMC cells” value (“EC50, inhibition … in human PBMC cells” for short) was 0.0542 µg/mL. For the same molecule, the 50% effective concentration (EC50) (in general, the concentration giving half of the maximal effect) in [2] turned out to be 0.107 µg/mL; in assay [3] it was 0.0968 µg/mL.

B2: 17G6A2_hzH1L7_hIgG1 (antibody)
heavy: not shown
light: DIVLTQSPASLAVSPGQRATITCRASESVSFHGTHLMHWYQQKPGQPPKLLIYAASNLESGVPARFSGSGSETDFTLTINPVEAEDTANYYCQQSIEDPPTFGGGTKVEIKRTVAAPSVFIFPPSDEQLKSGTASVVCLLNNFYPREAKVQWKVDNALQSGNSQESVTEQDSKDSTYSLSSTLTLSKADYEKHKVYACEVTHQGLSSPVTKSFNRGEC
notes: Humanized, human IgG1/kappa (hzVH01 + hzVL07)
On to B2, for which the values for the EC50 in assay [4] and in assay [8] were 0.0944 µg/mL and 0.0595 µg/mL, respectively. Moreover, in [5], the “EC50, activation of Jurkat-human FcγR IIIa (158V)-NFAT cell line with Jurkat-hBDCA-2 target cells” value was determined as 0.005 µg/mL. Moreover, the equilibrium dissociation constant (Kd) (commonly the equilibrium constant for the complex coming apart) in [6] was 2.9 nM; in assay [9], 4.8 nM. Besides, the off-rate constant (koff) – broadly, a measure of how fast the partners let go of each other – is 0.000523 s⁻¹ in assay [6] and 0.00064 s⁻¹ in [9]. Further, the on-rate (kon) (as a rule, the rate constant with which the complex forms) was determined as 179000 M⁻¹ s⁻¹ in [6] and 130000 M⁻¹ s⁻¹ in assay [9]. For the same molecule, the “EC50, inhibition of immune complex-induced type I interferon (IFNα) production by human pDC cells” value in [7] amounted to 1 ng/mL. Moreover, the “EC50, inhibition … in human PBMC cells” value in [10] stood at 0.0011 µg/mL. The binding result with human CLEC4A, with human CLEC6A, with human CLEC4D and with human CLEC4E was “no binding (tested: 10 µg/ml)” in each case.

B3: 17G6A2_hzH2L6_hIgG1 (antibody, V domains shown)
VH: EVQLVESGGGLVKPGGSLRLSCAASGFTFSSYGMSWVRQAPGKGLEWVATISSGDSYTYYPDSVKGRFTISRDNAKNSLYLQMNSLRAEDTAVYYCARQLYYSYGYYFDYWGQGTTVTVSS
VL: DIVLTQSPASLAVSPGQRATITCRASESVSFHGTHLMHWYQQKPGQPPKLLIYAASNLESGVPARFSGSGSGTDFTLTINPVEANDAANYYCQQSIEDPPTFGGGTKVEIKR
notes: Humanized, human IgG1/kappa (hzVH02 + hzVL06)
B3: the values for the EC50 in [4] and in assay [8] were 0.106 µg/mL and 0.0701 µg/mL, respectively. In [6], the Kd is 3 nM. In assay [6], the koff came to 0.000309 s⁻¹. In assay [6], this molecule displayed a kon of 101000 M⁻¹ s⁻¹. In assay [10], the “EC50, inhibition … in human PBMC cells” value amounted to 0.0017 µg/mL. Further, the binding result with human CLEC4A, in the assay with human CLEC6A, with human CLEC4D and with human CLEC4E was “no binding (tested: 10 µg/ml)” throughout.

B4: 17G6A2_hzH2L7_hIgG1 (antibody, V domains shown)
VH: B3 VH
VL: B3 VL with G72E, N85E, A87T
notes: Humanized, human IgG1/kappa (hzVH02 + hzVL07)
Consider B4, for which the EC50 in assay [4] came to 0.0988 µg/mL; in [8], 0.0608 µg/mL. Moreover, in [6], the dissociation constant Kd is 1.8 nM. The same molecule registered an off-rate constant (koff) in [6] of 0.000311 s⁻¹. In [6], this molecule yielded an on-rate constant (kon) of 174000 M⁻¹ s⁻¹. Moreover, in assay [10], the “EC50, inhibition … in human PBMC cells” value came to 0.0011 µg/mL. Also, the binding result with human CLEC4A, with human CLEC6A, in the assay with human CLEC4D and with human CLEC4E was “no binding (tested: 10 µg/ml)” in each case.

B5: 17G6A2_hzH2L8_hIgG1 (antibody, V domains shown)
VH: B3 VH
VL: B3 VL with G72E
notes: Humanized, human IgG1/kappa (hzVH02 + hzVL08)
Turning to B5, the EC50 was 0.0383 µg/mL in assay [4] and 0.0222 µg/mL in assay [8]. For the same molecule, the affinity in [6], expressed as Kd, was 1.7 nM. Also, the off-rate constant (koff) in assay [6] turned out to be 0.000261 s⁻¹. In addition, in [6], the kon came out at 154000 M⁻¹ s⁻¹. For the same molecule, in assay [10], the “EC50, inhibition … in human PBMC cells” value was determined as 0.0011 µg/mL. Also, the binding result with human CLEC4A, in the assay with human CLEC6A, with human CLEC4D and with human CLEC4E was “no binding (tested: 10 µg/ml)” in each case.

B6: 164C11B8 (murine hybridoma monoclonal antibody) (antibody, V domains shown)
VH: DVILVESGGGLVKPGGSLKLSCAASGITFSTYTMSWLRQTPEKRLEWVATINSGGDNTYYPDSVKGRFTISRDNAKNNLYLQMSSLKSEDTALYYCATYRPYYYGSVLDYWGQGTTLTVSS
VL: DIVLTQSPASLAVSLGQRATISCKASQSVDYDGNSYVNWYQQKPGQPPKLLIYGASNLESGIPDRFSGSGSGTDFTLNIHPVEEEDGATYYCQQSDEDPWTFGGGTKLEIR
notes: Mouse antibody from hybridoma; also called hybridoma 164C11B8; hybridoma antibody 164C11B8
For B6, the EC50 in [2] is 0.233 µg/mL; in assay [3] it was 0.189 µg/mL. Further, the “EC50, inhibition … in human PBMC cells” value in assay [11] was found to be 0.002 µg/mL.
